Assay results as given in US20110091971A1, “Differentiation of Pluripotent Stem Cells” (priority 2008, published 2011).

B1: ACTN4: activin A variant peptide, SEQ ID 5 (protein)
chain: GLECDGKVNLCCKKQLFVSFKDIGWNDWIIAPSGYHANHCSGLCPSHIAGTSGSSLSFHSTVINHYRMRGHSPFSDMGACCVPTKLRPMSMLYYDDGQNIIKKDIQNMIVEECGCS
B2: ACTN48: activin A variant peptide, SEQ ID 49 (protein)
chain: GLECDGKVNLCCKKQNFVSFKDIGWNDWIIAPSGYHANECSGLCPSHIAGTSGSSLSFHSTVINHYRMRGHSPFANMGACCIPTKLRPMSMLYYDDGQNIIKKDIQNMIVEECGCS

System: Human Embryonic Stem Cells (H1 hESC line)
Assay: RT-PCR of pancreatic differentiation markers at conclusion of step four of differentiation (Example 12)
Format: cell-based
Details: end of step four; relative to commercial activin A or ACTN1
Protocol: Step 4 of the differentiation protocol was carried out over three days. Cells were fed daily by aspirating the medium from each well and replacing with a fresh aliquot (0.5 ml) of DMEM-high glucose supplemented with 1% B27, 100 ng/ml Noggin, 100 ng/ml Netrin-4 (R&D Systems; Cat #), 1 μM DAPT, and 1 μM Alk 5 inhibitor (Axxora; Cat #ALX-270-445). At the conclusion of the fourth step of differentiation, cells from some wells were harvested for analysis by RT-PCR to measure markers of differentiation.
RT-PCR Analysis: RNA samples were purified by binding to a silica-gel membrane (Rneasy Mini Kit, Qiagen, CA) in the presence of an ethanol-containing, high-salt buffer followed by washing to remove contaminants. The RNA was further purified using a TURBO DNA-free kit (Ambion, INC), and high-quality RNA was then eluted in water. Yield and purity were assessed by A260 and A280 readings on a spectrophotometer. […]
Unless otherwise stated, all reagents were purchased from Applied Biosystems. […] For each primer/probe set, a Ct value was determined as the cycle number at which the fluorescence intensity reached a specific value in the middle of the exponential region of amplification. Relative gene expression levels were calculated using the comparative Ct method. […] The normalized amount of target was calculated as 2-ΔCt, assuming amplification to be 100% efficiency. […]

Molecule	expression of downstream pancreatic differentiation markers (RT-PCR)
B1	comparable expression
B2	comparable expression
